Assay results as given in paper doi:10.1101/2024.07.29.605598 (bioRxiv, 2024).
Values joined by “and” are separate entries in the source; they are usually repeats but may differ in a detail not shown here. Identical values can stand only once.

B1: Drosophila melanogaster Cno RA2 domain (amino acids 222-350) (domain or fragment, UniProt Q24279 222-350, looked up)
chain: TRSISNPEAVMRRRRQQKLEKKLQQFRSRDGGPDTGGTLKIYGESLCQDVPYKTLLLSIRDCAQAVVREMLTKYGLEKADPLHYCLVQVNSDGTEYILDDDECPLSILMNHPTSRGSIMFHVRRRPADS
B2: Drosophila melanogaster GTPase Rap1 G12V (amino acids 1-180), GMPPNP-loaded (enzyme, UniProt P08645 1-180, looked up)
chain: MREYKIVVLGSVGVGKSALTVQFVQCIFVEKYDPTIEDSYRKQVEVDGQQCMLEILDTAGTEQFTAMRDLYMKNGQGFVLVYSITAQSTFNDLQDLREQILRVKDTDDVPMVLVGNKCDLEEERVVGKELGKNLATQFNCAFMETSAKAKVNVNDIFYDLVRQINKKSPEKKQKKPKKSL
B3: Drosophila melanogaster Cno RA1 domain (amino acids 1-137) (domain or fragment, UniProt Q24279 1-137, looked up)
chain: MSHDKKMLDREAVRSVIQQWNANRLDLFALSEPDENLLFHGVMRFYFQDAGQKVATKCIRVASDATVTDVIDTLIEKFRPDMRMLSVPNYALYEVHANGEERRLNADEKPLLVQLNWHIDDREGRFLLKNIDQKTTP

Legend:
[1] = target: B2; assay: ITC
[2] = target: B3; assay: SEC-MALS
[3] = target: B3; assay: ITC
[4] = target: B1; assay: ITC

**Q.** How did the Kd [1] turn out when B1 was run?
**A.** 8.8 µM and 7.9 µM and 8.7 µM

**Q.** How did the “stoichiometry N” value [2] turn out when B2 was run?
**A.** 1

**Q.** And the dH [3]?
**A.** -4.38 kcal/mol and -4.79 kcal/mol

**Q.** And the “stoichiometry N” value [3]?
**A.** 0.717

**Q.** What about the dH [4] of the same binder?
**A.** -3.07 kcal/mol and -2.18 kcal/mol and -2.72 kcal/mol

**Q.** What about the “stoichiometry N” value [4] of the same binder?
**A.** 0.755 and 0.73 and 0.63

**Q.** B3 was tested. Which Kd [1] did it give?
**A.** 4.5 µM and 5.9 µM
